Results from the supplement of paper PMC10567573.
± gives the standard deviation.

Experiment: protein stability index of a GFP-peptide fusion (GPS, HEK-293T) (PSI 1-6); higher = more stable
Settings: c terminus: a fixed tail appended
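Further: 24-mer peptide tiles fused after GFP, lentivirally expressed, FACS-sorted into six equal bins by GFP/DsRed ratio, decoded by Illumina sequencing, PSI is the read-weighted mean bin number.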

Sequence	protein stability index (treatment: DMSO)	protein stability index (treatment: MLN4924 1 uM, 8 h)
VDGRATQKLIVNLKPEKSYSFVLT [PTPRD]	2.4 ± 0.51	2.37 ± 0.66
TREQLYQAIFHAVDQYLALPDVSL [MCOLN1]	3.37 ± 0.54	2.67 ± 0.61
DLVLHTNYTATVRGLRGPNLTSPA [TNXB]	2.79 ± 0.31	2.71 ± 0.32
DVHHGNGTQHMFEDDPSVLYVSLH [HDAC6]	2.97 ± 0.34	2.93 ± 0.31
LDQLLHYRKKSAEFPDFYDSEEPV [CHGB]	3.96 ± 0.34	4 ± 0.15
VGAAYASLRRRGASAAARLGCNRQ [TRIM14]	3.36 ± 0.17	4.09 ± 0.39
LELGSTEVLLDHLKAHAEEKPPSG [PLAGL1]	4.46 ± 0.28	4.94 ± 0.2
SVDIWAIGCVFAELLTGQPLWPGK [CDKL4]	2.6 ± 1.3	3.02 ± 0.97
LQVRGYPEEKKEEEGSANRRPEDQ [CHGA]	5.61 ± 0.21	5.7 ± 0.25
YKSVLQAVQKTDEGHPFKAYLELE [RTN1]	3.43 ± 0.12	3.54 ± 0.21
ILDAMAEETRQKQLLADEKMKQLT [TRIM35]	4.52 ± 0.23	4.68 ± 0.21
RTAQSEETRVWHRRDGKWQIVHFH [CAMK2A]	3.15 ± 0.16	3.12 ± 0.26
PPLLGTFPRDHTSLALVQNGDVSA [ANKRD40]	4.57 ± 0.21	4.4 ± 0.41
LCLQLRDDIVSGRLPCSFVTLALL [EPB41L3]	3.24 ± 0.61	2.23 ± 0.45
IFCEEHFPVAEQDKLLKHMIIEHK [ZNF277]	2.75 ± 0.23	3.01 ± 0.4
ADSVITVGRGEVVTVRVPTHEEGS [ACBD3]	4.88 ± 0.2	4.88 ± 0.16
SLLVHGFKPACMSEIKNLERYMCS [TENT5D]	2.48 ± 0.41	2.41 ± 0.29
AAAEVGGGVGGSSRARSASSPRGM [ANKRD17]	4.82 ± 0.34	5 ± 0.24
HAGEHLLLGATKRSMVFKDVLLLG [HNF4A]	2.26 ± 0.33	2.35 ± 0.4
LCYPPAKGCLKLCRRCYDWIHRPG [SPRY1]	2.06 ± 0.094	2.27 ± 0.33
VGTRQNEELPCTCPLCTSDRGSCV [RHOBTB3]	4.77 ± 0.27	4.93 ± 0.12
FLMDLPSAGRSMPEASDQEEHLSP [RNF180]	4.82 ± 0.21	5.08 ± 0.14

Sequence	protein stability index (treatment: DMSO)	protein stability index (treatment: MLN4924 1 uM, 8 h)
SAPHLENSGHTIFNDPFFIVETVC [KCNA4]	2.43 ± 0.23	2.46 ± 0.38
AHSNAISNCCFTFSGHFLCTSSWD [WDR88]	2.48 ± 0.49	2.3 ± 0.57
KSGEEAVTVLEDLEKGLEPEPQVP [ZNF232]	5.63 ± 0.17	5.62 ± 0.16
TPNSAGGPGAHILRRKSPASGQGP [ADAMTS4]	4.55 ± 0.15	4.93 ± 0.28
RDTTGVSQMFPSSKARTKSLLGDD [FBF1]	4.83 ± 0.056	4.82 ± 0.14
KRAFKIKDFANTIPGHGGIMDRFD [CDS2]	2.77 ± 0.27	2.91 ± 0.42
QTNSETAVVALTQDQPSEAATGGA [HDAC6]	5.31 ± 0.2	5.42 ± 0.062
NGDVSAPSAILRTPESTKPGPVCQ [ANKRD40]	4.782 ± 0.036	4.83 ± 0.13
FLDIPRSRLVKYPLLLKEILKHTP [NET1]	1.99 ± 0.55	2.34 ± 0.18
LERKFRCQQEQLFQTRQEMTSMSA [LRRC45]	3.22 ± 0.29	3.21 ± 0.24
AKKGRRNQSVEPKKEEPEPETEAV [ZMYND11]	5.53 ± 0.28	5.66 ± 0.21
GGTVKLADFGLARIYSYQMALTPV [CDK4]	2.36 ± 0.27	2.17 ± 0.11
SMQEDEQSGRDLQQYQSQAKQLFR [SEC22B]	4.22 ± 0.17	4.35 ± 0.19
SIVTAAKKDILLVNDHLLNFVRER [PDS5B]	2.25 ± 0.16	2.3 ± 0.27
SDAEAVSTRWEVIAEDGTKEIESQ [TAF7L]	5.42 ± 0.12	5.48 ± 0.31
SGNDPFAPSEGSAEAAPELDLFAM [SNAP91]	4.83 ± 0.2	4.89 ± 0.23
PQPLSFKEPPLLLGVLHPNTKLRQ [APMAP]	3.48 ± 0.17	3.59 ± 0.2
FDFDDDGTLNREDLSRLVNCLTGE [CIB1]	4.21 ± 0.21	4.29 ± 0.34
PGAGVPSGSGGTVAPATMGSARSH [ZBTB22]	4.75 ± 0.16	4.8 ± 0.15
SINALLQAEVLSRQITSPVSGING [HNF4A]	2.7 ± 0.13	2.67 ± 0.2
AMELRHQGGEYLPKPEPPQLVLAY [FEM1A]	2.32 ± 0.33	2.38 ± 0.28
DKFQWLAGLAPPSLFARAMQVLVT [ANKRD9]	2.56 ± 0.44	2.29 ± 0.15

Sequence	protein stability index (treatment: DMSO)	protein stability index (treatment: MLN4924 1 uM, 8 h)
YANAVLQALSNVPPLRNYFLEEDN [USP39]	2.19 ± 0.072	2.12 ± 0.24
VEEVVYDLSIRGFNKETAAACVEK [TSN]	4.63 ± 0.22	4.51 ± 0.56
TRRSCIDESQISAEEAEDHGRIPD [FAM189A2]	5.5 ± 0.33	5.49 ± 0.15
HNQIAIYAHQPRTADEIPMEPGDI [FUT8]	4.6 ± 0.19	4.52 ± 0.18
VDNIDMIDGDGDDMERFMEEMREL [BEX5]	5.27 ± 0.41	5.26 ± 0.21
EAVESRGGVPGGCVLVPRADLRLG [SMAD6]	4.07 ± 0.47	4.34 ± 0.17
VTHREGAPPLPGAESFPGSQVMGS [PLEKHN1]	4.63 ± 0.14	4.51 ± 0.11
FFLAILSCSEICYTFIIVPKMLVD [OR10K2]	3.42 ± 0.36	2.89 ± 0.28
EELRQEWEAKQEKIKSEEIEITFS [FAM50A]	4.98 ± 0.11	4.95 ± 0.35
QNPEAIAAAAMYTFLPDNFSPAKP [MYORG]	3.79 ± 0.15	3.86 ± 0.2
EQHNWNIEAAVQDRLNEQEGVPSV [FAF2]	5.05 ± 0.22	5.17 ± 0.32
VQNGTYLQRVLQNCPWPMSCPGSS [EMID1]	2.12 ± 0.36	3.17 ± 1.1
SLDFTKKILHTAWHPAENIIAIAA [PPP2R2C]	2.58 ± 0.59	2.29 ± 0.31
HKVKAEEEKKAKVAPPAKQAQQKK [BRD3]	5.5 ± 0.22	5.5 ± 0.29
DSLHPRPPYLPLAVPEDLADRLVR [FUT8]	4.14 ± 0.13	4.06 ± 0.14
IERANNVKYGLAATVWSSNVGRVH [ALDH8A1]	2.66 ± 0.29	2.8 ± 0.25
MFRSKRSGLVRRLWRSRVVPDREE [SMAD6]	2.67 ± 0.17	3.24 ± 0.5
NTLRCQLGDRLNVEVDAAPAVDLN [KRT33B]	4.47 ± 0.19	4.39 ± 0.22
HITKLKPWSLFDVLVEKYGWPHED [SRPK2]	2.23 ± 0.33	2.38 ± 0.11
ICARACNATLTQYQLLATHVPTVW [RHOBTB2]	2.67 ± 0.13	2.41 ± 0.4
FGGPFVESSTREVVFPYTSKSCMR [RHOBTB2]	2.54 ± 0.8	2.98 ± 0.75
